B1: ZNF8 (parent)
chain: SLGRHKRTHTGEKPYTCSVCGKSF

Variants of: B1
Assay: protein stability index of a GFP-peptide fusion (GPS, HEK-293T) (PSI 1-6); higher = more stable
Details: c terminus: a fixed tail appended
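Also: lentivirally expressed fusions sorted by FACS into six bins by GFP to DsRed ratio, PSI derived from sequencing read proportions per bin multiplied by bin number.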

Protein stability index: each site, then its substitutions
R7: F 2.83; P 2.98; Y 2.96; E 4.08; T 2.32; Q 2.98; V 3.37; H 3.65; S 3.34; I 3.39; N 3.38; K 3; C 4.55; W 2.8; M 2.44; G 4.28; L 2.66; D 3.02; A 2.42
Y15: V 2.44; T 2.3; Q 2.33; I 2.59; W 2.63; H 2.34; K 2.72; F 2.36; N 2.33; G 2.45; P 2.29; E 2.89; D 2.46; M 2.52; C 3.79; R 2.61; A 2.58; L 2.44; S 2.9
K22: G 2.19; M 2.07; Y 3.41; S 2.34; R 3.09; V 2.48; P 3.29; T 3.37; F 2.54; N 2.87; C 2.54; A 2.82; L 2.36; D 3.01; H 3.12; E 3.66; I 2.05; Q 2.47
H9: C 2.59; D 2.79; E 3.06; K 3.13; V 2.47; L 2.18; S 2.66; T 2.78; F 2.09; N 2.67; W 2.83; R 2.94; M 2.59; A 2.82; P 2.96; Y 3.15; G 2.16; Q 3.98; I 2.84
T16: N 2.97; L 2.25; C 2.31; Q 3.14; K 2.68; W 2.33; A 2.95; D 2.81; M 2.85; Y 2.61; I 2.75; V 3.01; R 2.89; F 3.04; E 2.98; P 2.19; H 2.77; S 2.51
C20: Y 2.94; S 4; W 2.4; H 2.79; G 3.18; T 3.44; P 3.36; A 3.05; I 2.94; L 2.45; K 3.23; Q 3.42; R 2.98; E 3.78; V 3.13; F 2.47; M 3.36; N 3.51; D 3.99
K6: S 2.61; Y 3.23; L 2.04; R 2.77; V 2.35; P 2.18; Q 2.95; N 2.48; T 2.97; M 2.38; W 1.94
E12: T 2.24; N 3.1; Q 2.77; C 2.24; P 3.28; K 2.79; R 3.19; I 2.53; Y 3.15; H 2.52; W 2.2; V 2.11; D 2.64; L 2.37; M 2.41; A 2.7; G 2.79; F 1.74; S 2.64
F24: D 3.83; A 3.1; C 4.13
T10: H 2.98; L 2.19; N 3.44; S 3.28; I 2.77; A 2.84; V 2.09; K 2.84; F 1.88; Y 2.18; E 2.86; G 3.3; Q 3.12; D 3.47; M 2.74; W 2.33; P 2.56; R 2.32; C 2.08
C17: P 3.17; D 4.3; T 3.19; G 3.49; F 2.4; N 3.78; V 3.58; Q 3.76; M 2.96; A 3.81; S 3.3; R 2.75; W 2.81; I 2.38; Y 2.77; K 3.65; L 2.33; H 3.32; E 3.77
P14: I 3.47; W 3.82; D 3.11; M 2.72; H 2.89; F 3.14; A 2.23; G 2.44; T 3.77; R 2.63; Q 3; N 3.21; L 3.73; C 2.73; E 2.8; V 3.18; K 2.83; Y 3; S 3.3
G11: R 2.53; F 2.4; Q 2.53; E 2.51; D 3.24; Y 2.94; V 1.98; A 2.17; T 3.09; C 2.77; I 2.07; K 2.9; P 2.73; W 3.56; M 2.41; S 2.79; N 2.3; H 3.29; L 2.42
T8: L 2.61; W 2.2; G 2.68; C 2.45; Q 3.17; M 1.9; V 2.68; N 2.44; E 2.97; Y 2.65; S 3.02; P 2.64; K 3.17; F 2.6; D 3.45; R 2.83; H 3.05; I 1.91; A 3.09
K13: T 2.92; C 2.88; I 2.65; Q 2.71; L 1.99; S 2.94; D 2.34; G 2.61; R 2.39; H 2.96; A 3.72; N 2.48; W 3.06; P 2.71; F 2.2; M 2.4; E 2.39; Y 2.31
S23: D 3.3; W 2.12; L 2.69; V 1.95; G 2.94; H 3.12; E 3.03; R 3.2; A 2.5; C 2.48; T 3.32; M 2.18; Q 2.25; N 2.9; Y 2.79; K 3.3; P 2.39; I 2.8; F 2.38
G21: N 2.98; F 2.5; V 2.17; R 3.03; H 2.78; T 3.14; M 2.71; L 1.9; D 3.11; I 2.01; Q 2.59; S 2.94; W 1.88; K 3.36; C 2; A 2.35; E 2.1; Y 1.92; P 3.12
S18: W 2.84; A 2.94; V 2.83; G 2.83; L 2.44; K 2.98; H 2.26; D 2.76; N 2.02; Y 2.71; Q 3.16; T 2.68; R 2.54; P 3; F 2.08; C 2.63; I 2.34; E 3.38; M 2.58
V19: Y 2.64; E 2.42; T 2.75; S 3.04; R 3.15; P 3.06; H 3.06; M 2.7; D 3.5; Q 3.45; I 2.79; A 2.36; G 2.7; W 1.88; K 2.93; N 3.47; F 2.67; C 3.68; L 2.29

Reference: the supplement of paper PMC10567573
